From patent CN116082503A

Biological target: T细胞表面未知蛋白 (unknown protein on the surface of CD3+ T cells)
Assay: cell-based or functional assay

T细胞增殖抑制, 剂量依赖 (dose at which inhibition of T cell proliferation becomes evident): > 0.5 µg
Substance: IGSF9-ECD-His (带有His标签的人IGSF9胞外区蛋白) (receptor)
